Laboratory results from US10066025B2, “Compositions and methods for detecting, treating and preventing diseases and disorders” (YALE UNIVERSITY, priority 2012, dated 2018).

How the values were obtained:
[1] = test system: systemic blood pressure; details: Xu et al., 2005, cited from earlier work
[2] = test system: renal ischemia/reperfusion (IR) injury; test: Histological detection of necrosis, apoptosis, neutrophil and macrophage infiltration after renal IR; assay type: in vivo, mice
Method: Adult male renalase deficient (KO) mice (Wu et al., 2011, Kidney Int 79: 853-860) on a C57BL/6 background were subjected to renal ischemia/reperfusion (IR) as described (Kim et al., 2009, Kidney Int 75: 809-823; Kim et al., 2010, Am J Physiol Renal Physiol 299(2):[…]-58). Renalase KO or wild type (WT) mice (C57BL/6 from Harlan Labs, Indianapolis, Ind.) were subjected to sham-operation or to 20 min. (moderate) or 30 min. (severe) renal ischemia and 24 hr. reperfusion. To test the renal protective effects of recombinant human renalase, mice were pretreated with saline (vehicle) or with recombinant renalase (0.5, 1.5 or 4.5 mg/kg, s.c.) 10 min. prior to 30 min. renal ischemia. It was also tested whether renalase treatment after completion of renal ischemia also provides renal protection. Separate cohorts of mice were treated with saline or with renalase (1.5 mg/kg, s.c.) 30 min. or 60 min. after reperfusion of the ischemic kidney. To test whether blocking alpha receptors would mimic the renal protective effects of human recombinant renalase administration, phentolamine (an alpha receptor antagonist, 5 mg/kg, i.p.) was given in some mice 15 min. before renal ischemia. An established grading scale of necrotic injury (0-4, Renal Injury Score) to the proximal tubules was used for the histopathological assessment of IR-induced damage as outlined by Jablonski et al. (1983, Transplantation 35: 198-204) and as described in previous studies (Lee et al., 2004, J Am Soc Nephrol 15: 102-111; Lee et al., 2004, Am J Physiol Renal Physiol 286: […]-[…]). Apoptosis was detected after renal IR with TUNEL staining as described (Park et al., 2011, Lab Invest 91: 63-84) using a commercially available in situ cell death detection kit (Roche, Indianapolis, Ind.) according to the instructions provided by the manufacturer. Kidney neutrophil and macrophage infiltrations were assessed with immunohistochemistry 24 hr. after IR as described previously (Park et al., 2011, Lab Invest 91: 63-84). Neutrophils and macrophages infiltrating the kidney were quantified in 5-7 randomly chosen 200× (neutrophils) or 400× (macrophages) microscope images fields in the corticomedullary junction and results were expressed as neutrophils counted per 200-400× field.

[3] = test system: PI3K/AKT and MAPK pathways; test: AKT and MAPK signaling and Bcl-2 expression by western blot; assay type: cell-based, human
Method: FIG. 12, comprising FIGS. 12A through 12E, is a set of images and graphs showing renalase upregulates Bcl-2, activates PI3K/AKT, ERK, p38, and inhibits JNK. Western blot analysis; P− indicates phosphorylated, activated proteins; signals normalized to GAPDH loading control, then changes in protein phosphorylation (increase=activation, decrease=inhibition) from time 0 are calculated. FIG. 12A: HK-2 and HUVEC cells incubated with renalase for 24 hrs; FIG. 12B: Western blot of time course of AKT and MAPK signaling by renalase, HK-2 cells incubated with renalase for indicated time; changes over baseline in 4c-d are significant (p<0.05); FIG. 12C: Activation of AKT(T308), AKT(5473) and ERK; FIG. 12D: Inhibition of JNK; FIG. 12E: Marked and sustained (60 min) upregulation of p38 by renalase in the presence of cisplatin, western blot for time course, REN=renalase, CP=cisplatin.
MAPK signaling by renalase and renalase peptides. Western blot analysis; ERK: Extracellular signal-Regulated Kinase 1 and 2; JNK: c-Jun N-terminal Kinases; AKT: protein kinase B; p-indicates phosphorylated, activated proteins; representative blot, n=3 (FIG. 20A). Renalase activates AKT (FIG. 20B). Western blot analysis; P− indicates phosphorylated, activated proteins Representative blot, n=3 (FIG. 20B, left panel). Signals normalized to GAPDH loading control; n=3, change over baseline statistically significant (P<0.05) from 1-60 min for ERK, p38 and AKT (T308), and at 30 min only for AKT (S473) (FIG. 20B, right panel). ERK or AKT inhibition abrogates protective effect of RP-H220 (FIG. 20C). Plasma creatinine levels from mice subjected to sham-surgery or to renal ischemia and reperfusion (IR); Renalase WT mice were subjected to sham-surgery or to 30 min renal IR. For mice subjected to renal IR, RP-H220 or vehicle (saline) was injected 10 min prior to renal ischemia. Some animals were pretreated with either the ERK inhibitor PD98059 or the PI3K/AKT inhibitor wortmanin. (N=6-8 per group). *: P<0.05 vs. vehicle-treated mice subjected to sham-surgery; #: P<0.05 vs. vehicle-treated WT mice subjected to renal IR (FIG. 20C).

[4] = test system: plasma norepinephrine; test: Plasma norepinephrine after renal IR (ELISA); assay type: in vivo; details: 1.5 mg/kg; mice subjected to renal IR; vehicle 2.4±0.13 ng/mL
Method: Adult male renalase deficient (KO) mice (Wu et al., 2011, Kidney Int 79: 853-860) on a C57BL/6 background were subjected to renal ischemia/reperfusion (IR) as described (Kim et al., 2009, Kidney Int 75: 809-823; Kim et al., 2010, Am J Physiol Renal Physiol 299(2):F347-58). Renalase KO or wild type (WT) mice (C57BL/6 from Harlan Labs, Indianapolis, Ind.) were subjected to sham-operation or to 20 min. (moderate) or 30 min. (severe) renal ischemia and 24 hr. reperfusion. To test the renal protective effects of recombinant human renalase, mice were pretreated with saline (vehicle) or with recombinant renalase (0.5, 1.5 or 4.5 mg/kg, s.c.) 10 min. prior to 30 min. renal ischemia. It was also tested whether renalase treatment after completion of renal ischemia also provides renal protection. Separate cohorts of mice were treated with saline or with renalase (1.5 mg/kg, s.c.) 30 min. or 60 min. after reperfusion of the ischemic kidney. To test whether blocking alpha receptors would mimic the renal protective effects of human recombinant renalase administration, phentolamine (an alpha receptor antagonist, 5 mg/kg, i.p.) was given in some mice 15 min. before renal ischemia.
Plasma norepinephrine in mice subjected to sham-operation or to renal IR was measured with a commercial ELISA kit according to the manufacturer's instructions (Rocky Mountain Diagnostics, Colorado Springs, Colo.).

[5] = cited from earlier work
[6] = treated before renal ischemia, 30 min. ischemia, 24 hr. reperfusion

B1: recombinant renalase: human recombinant renalase, 38 kDa FAD-dependent amine oxidase; renalase polypeptide SEQ ID NO: 9 or 10 (protein, UniProt Q5VYX0 18-342, looked up)
Renalase: ALLRRQTSGPLYLAVWDKAEDSGGRMTTACSPHNPQCTADLGAQYITCTPHYAKKHQRFYDELLAYGVLRPLSSPIEGMVMKEGDCNFVAPQGISSIIKHYLKESGAEVYFRHRVTQINLRDDKWEVSKQTGSPEQFDLIVLTMPVPEILQLQGDITTLISECQRQQLEAVSYSSRYALGLFYEAGTKIDVPWAGQYITSNPCIRFVSIDNKKRNIESSEIGPSLVIHTTVPFGVTYLEHSIEDVQELVFQQLENILPGLPQPIATKCQKWRHSQVTNAAANCPGQMTLHHKPFLACGGDGFTQSNFDGCITSALCVLEALKNYI
[1]; 4 mg/kg dose
  reduction of mean arterial pressure: ~40%
[1]
  blood pressure when injected into rodents: marked decrease in blood pressure
[2]; 1.5 mg/kg s.c. 10 min. before renal ischemia
  apoptotic TUNEL-positive cells in the kidney: significantly reduced the number of apoptotic TUNEL-positive cells
[2]; 1.5 mg/kg, renalase WT mice vs. vehicle
  renal histological injury (hematoxylin and eosin): dramatically reduced injury
[2]; renalase WT mice, 30 min. renal IR, 24 hr. after IR, vs. vehicle
  Jablonski scale renal injury score (0-4): significantly lower renal injury scores
[2]; [6]
  macrophages infiltrating the kidney after IR (F4/80): significantly reduced number of macrophages
  neutrophils infiltrating the kidney after IR: significantly reduced number of neutrophils
[3]; HK-2 and human vein endothelial cells (HUVEC) at 24 hrs
  Bcl-2 expression: upregulates Bcl-2 expression
[3]; HK-2 cells
  decrease in JNK-p54/p46 phosphorylation: ~95%
[3]; HK-2 cells in culture
  AKT and MAPK signaling (phosphorylation of ERK, p38, AKT): rapid and transient increase in phosphorylated
[3]; at 15 min, HK-2 cells
  activation of AKT: ~45 fold
  activation of ERK: ~35 fold
[3]; cells treated with cisplatin
  activation of AKT and p38: marked and sustained activation
[4]
  plasma norepinephrine: 1.6 ± 0.2 ng/mL
[5]
  increase in rate of epinephrine metabolism in the presence of NADH: 18 fold
